Earlier results, collected in paper PMC5536120.

Experiments:
[1] = target: knob B peptide GHRP (Homo sapiens) (UniProt P02675)
[2] = target: Fibrin central fragment central region (knobs A) (Homo sapiens) (UniProt P02671)

Chain of UniProt P02675 (P02675 whole entry, looked up, the tested form may be a part): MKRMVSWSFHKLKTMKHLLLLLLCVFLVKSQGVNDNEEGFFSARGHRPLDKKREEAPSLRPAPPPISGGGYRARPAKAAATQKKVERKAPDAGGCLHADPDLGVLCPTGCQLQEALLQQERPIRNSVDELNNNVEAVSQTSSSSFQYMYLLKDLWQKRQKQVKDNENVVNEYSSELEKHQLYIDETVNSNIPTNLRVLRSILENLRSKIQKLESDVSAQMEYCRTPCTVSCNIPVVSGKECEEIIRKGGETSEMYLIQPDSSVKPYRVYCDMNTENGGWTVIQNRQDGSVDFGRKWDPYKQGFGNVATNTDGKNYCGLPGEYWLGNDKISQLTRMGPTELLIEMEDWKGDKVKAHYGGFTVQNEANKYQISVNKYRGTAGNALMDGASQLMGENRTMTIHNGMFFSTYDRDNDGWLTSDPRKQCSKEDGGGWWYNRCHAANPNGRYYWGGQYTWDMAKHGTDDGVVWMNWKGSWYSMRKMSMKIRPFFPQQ

- Kd [1]: 140 µM
- Kd [2]: 5.8 µM
Substance: Fibrinogen (from UniProt P02671)
